Laboratory results from US20120172293A1 (Takeda / Millennium, published 2012).
Non-standard residues stand in square brackets, D forms with d. No end group written: not given here. 4Amb = NCc1ccc(C(=O)O)cc1

T1: human Y2 receptor (human, UniProt P49146 1-381)
T1 sequence (looked up): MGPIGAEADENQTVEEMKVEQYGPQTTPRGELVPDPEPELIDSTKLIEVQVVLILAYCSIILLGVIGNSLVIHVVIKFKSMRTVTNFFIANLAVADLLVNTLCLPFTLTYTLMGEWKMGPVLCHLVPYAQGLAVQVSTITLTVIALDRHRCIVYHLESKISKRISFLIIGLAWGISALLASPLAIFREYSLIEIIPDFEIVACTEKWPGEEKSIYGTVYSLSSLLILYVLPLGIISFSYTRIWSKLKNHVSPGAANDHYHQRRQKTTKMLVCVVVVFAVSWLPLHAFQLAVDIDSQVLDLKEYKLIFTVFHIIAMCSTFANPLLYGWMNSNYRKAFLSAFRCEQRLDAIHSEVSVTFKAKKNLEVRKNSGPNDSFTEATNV


Legend:
[1] = target: T1, human Y2 receptor; assay: cell-based or functional assay
[2] = target: T1, human Y2 receptor; assay: RBA: [125I]-PYY displacement, hY2R/CHO membranes
Outline: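 Bound radioligand was collected by filtration on PEI-treated GF/C filters, washed with Tris/MgCl₂/NaCl/CHAPS buffer pH 7.4, and counted by scintillation; IC₅₀ values were calculated.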

Row | Binder | GBA EC50 Ratio (vs PYY(3-36)), [35S]GTPγS [1] | IC50 Ratio (vs PYY(3-36)) [2]
1 | [4Amb]RAQINLITRQRY-NH2 (N-terminus assumed; SMILES CC[C@H](C)[C@H](NC(=O)[C@H](CCC(N)=O)NC(=O)[C@H](C)NC(=O)[C@H](CCCNC(=N)N)NC(=O)c1ccc(CN)cc1)C(=O)N[C@@H](CC(N)=O)C(=O)N[C@@H](CC(C)C)C(=O)N[C@H](C(=O)N[C@H](C(=O)N[C@@H](CCCNC(=N)N)C(=O)N[C@@H](CCC(N)=O)C(=O)N[C@@H](CCCNC(=N)N)C(=O)N[C@@H](Cc1ccc(O)cc1)C(N)=O)[C@@H](C)O)[C@@H](C)CC, also called compound No. 30) [4-Aminomethylbenzoyl-[Ala26, Gln27, Ile28,31]-PYY(25-36)] | 14 ratio | 25 ratio
2 | [4Amb]RAYFNLITRQRY-NH2 (N-terminus assumed; SMILES CC[C@H](C)[C@H](NC(=O)[C@H](CC(C)C)NC(=O)[C@H](CC(N)=O)NC(=O)[C@H](Cc1ccccc1)NC(=O)[C@H](Cc1ccc(O)cc1)NC(=O)[C@H](C)NC(=O)[C@H](CCCNC(=N)N)NC(=O)c1ccc(CN)cc1)C(=O)N[C@H](C(=O)N[C@@H](CCCNC(=N)N)C(=O)N[C@@H](CCC(N)=O)C(=O)N[C@@H](CCCNC(=N)N)C(=O)N[C@@H](Cc1ccc(O)cc1)C(N)=O)[C@@H](C)O, also called compound No. 22) [4-Aminomethylbenzoyl-[Ala26, Phe28, Ile31]-PYY(25-36)] | 3.5 ratio | 4.1 ratio
3 | [4Amb]RAYINFITRQRY-NH2 (N-terminus assumed; SMILES CC[C@H](C)[C@H](NC(=O)[C@H](Cc1ccc(O)cc1)NC(=O)[C@H](C)NC(=O)[C@H](CCCNC(=N)N)NC(=O)c1ccc(CN)cc1)C(=O)N[C@@H](CC(N)=O)C(=O)N[C@@H](Cc1ccccc1)C(=O)N[C@H](C(=O)N[C@H](C(=O)N[C@@H](CCCNC(=N)N)C(=O)N[C@@H](CCC(N)=O)C(=O)N[C@@H](CCCNC(=N)N)C(=O)N[C@@H](Cc1ccc(O)cc1)C(N)=O)[C@@H](C)O)[C@@H](C)CC, also called compound No. 54) [4-Aminomethylbenzoyl-[Ala26, Ile28,31, Phe30]-PYY(25-36)] | 3.4 ratio | 5.7 ratio
4 | [4Amb]RAYINLILRQRY-NH2 (N-terminus assumed; SMILES CC[C@H](C)[C@H](NC(=O)[C@H](Cc1ccc(O)cc1)NC(=O)[C@H](C)NC(=O)[C@H](CCCNC(=N)N)NC(=O)c1ccc(CN)cc1)C(=O)N[C@@H](CC(N)=O)C(=O)N[C@@H](CC(C)C)C(=O)N[C@H](C(=O)N[C@@H](CC(C)C)C(=O)N[C@@H](CCCNC(=N)N)C(=O)N[C@@H](CCC(N)=O)C(=O)N[C@@H](CCCNC(=N)N)C(=O)N[C@@H](Cc1ccc(O)cc1)C(N)=O)[C@@H](C)CC, also called compound No. 62) [4-Aminomethylbenzoyl-[Ala26, Ile28,31, Leu32]-PYY(25-36)] | 15 ratio | 18 ratio
5 | [4Amb]RAYWNLITRQRY-NH2 (N-terminus assumed; SMILES CC[C@H](C)[C@H](NC(=O)[C@H](CC(C)C)NC(=O)[C@H](CC(N)=O)NC(=O)[C@H](Cc1c[nH]c2ccccc12)NC(=O)[C@H](Cc1ccc(O)cc1)NC(=O)[C@H](C)NC(=O)[C@H](CCCNC(=N)N)NC(=O)c1ccc(CN)cc1)C(=O)N[C@H](C(=O)N[C@@H](CCCNC(=N)N)C(=O)N[C@@H](CCC(N)=O)C(=O)N[C@@H](CCCNC(=N)N)C(=O)N[C@@H](Cc1ccc(O)cc1)C(N)=O)[C@@H](C)O, also called compound No. 23) [4-Aminomethylbenzoyl-[Ala26, Trp28, Ile31]-PYY(25-36)] | 5 ratio | 3.4 ratio
6 | [4Amb]RAYINLITRQRF-NH2 (N-terminus assumed; SMILES CC[C@H](C)[C@H](NC(=O)[C@H](Cc1ccc(O)cc1)NC(=O)[C@H](C)NC(=O)[C@H](CCCNC(=N)N)NC(=O)c1ccc(CN)cc1)C(=O)N[C@@H](CC(N)=O)C(=O)N[C@@H](CC(C)C)C(=O)N[C@H](C(=O)N[C@H](C(=O)N[C@@H](CCCNC(=N)N)C(=O)N[C@@H](CCC(N)=O)C(=O)N[C@@H](CCCNC(=N)N)C(=O)N[C@@H](Cc1ccccc1)C(N)=O)[C@@H](C)O)[C@@H](C)CC, also called compound No. 6) [4-Aminomethylbenzoyl-[Ala26, Ile28,31, Phe36]-PYY(25-36)] | 5.9 ratio | 5.1 ratio
7 | [4Amb]RAYINGITRQRY-NH2 (N-terminus assumed; SMILES CC[C@H](C)[C@H](NC(=O)CNC(=O)[C@H](CC(N)=O)NC(=O)[C@@H](NC(=O)[C@H](Cc1ccc(O)cc1)NC(=O)[C@H](C)NC(=O)[C@H](CCCNC(=N)N)NC(=O)c1ccc(CN)cc1)[C@@H](C)CC)C(=O)N[C@H](C(=O)N[C@@H](CCCNC(=N)N)C(=O)N[C@@H](CCC(N)=O)C(=O)N[C@@H](CCCNC(=N)N)C(=O)N[C@@H](Cc1ccc(O)cc1)C(N)=O)[C@@H](C)O, also called compound No. 45) [4-Aminomethylbenzoyl-[Ala26, Ile28,31, Gly30]-PYY(25-36)] | 12 ratio | 21 ratio
8 | [4Amb]RAYINLFTRQRY-NH2 (N-terminus assumed; SMILES CC[C@H](C)[C@H](NC(=O)[C@H](Cc1ccc(O)cc1)NC(=O)[C@H](C)NC(=O)[C@H](CCCNC(=N)N)NC(=O)c1ccc(CN)cc1)C(=O)N[C@@H](CC(N)=O)C(=O)N[C@@H](CC(C)C)C(=O)N[C@@H](Cc1ccccc1)C(=O)N[C@H](C(=O)N[C@@H](CCCNC(=N)N)C(=O)N[C@@H](CCC(N)=O)C(=O)N[C@@H](CCCNC(=N)N)C(=O)N[C@@H](Cc1ccc(O)cc1)C(N)=O)[C@@H](C)O, also called compound No. 59) [4-Aminomethylbenzoyl-[Ala26, Ile28, Phe31]-PYY(25-36)] | 6.6 ratio | 16 ratio
9 | [4Amb]RGYINLITRQRY-NH2 (N-terminus assumed; SMILES CC[C@H](C)[C@H](NC(=O)[C@H](Cc1ccc(O)cc1)NC(=O)CNC(=O)[C@H](CCCNC(=N)N)NC(=O)c1ccc(CN)cc1)C(=O)N[C@@H](CC(N)=O)C(=O)N[C@@H](CC(C)C)C(=O)N[C@H](C(=O)N[C@H](C(=O)N[C@@H](CCCNC(=N)N)C(=O)N[C@@H](CCC(N)=O)C(=O)N[C@@H](CCCNC(=N)N)C(=O)N[C@@H](Cc1ccc(O)cc1)C(N)=O)[C@@H](C)O)[C@@H](C)CC, also called compound No. 50) [4-Aminomethylbenzoyl-[Gly26, Ile28,31]-PYY(25-36)] | 4.6 ratio | 7.1 ratio
10 | [4Amb]RAYINLISRQRY-NH2 (N-terminus assumed; SMILES CC[C@H](C)[C@H](NC(=O)[C@H](Cc1ccc(O)cc1)NC(=O)[C@H](C)NC(=O)[C@H](CCCNC(=N)N)NC(=O)c1ccc(CN)cc1)C(=O)N[C@@H](CC(N)=O)C(=O)N[C@@H](CC(C)C)C(=O)N[C@H](C(=O)N[C@@H](CO)C(=O)N[C@@H](CCCNC(=N)N)C(=O)N[C@@H](CCC(N)=O)C(=O)N[C@@H](CCCNC(=N)N)C(=O)N[C@@H](Cc1ccc(O)cc1)C(N)=O)[C@@H](C)CC, also called compound No. 60) [4-Aminomethylbenzoyl-[Ala26, Ile28,31, Ser32]-PYY(25-36)] | 44 ratio | 180 ratio
11 | [4Amb]RAWINLITRQRY-NH2 (N-terminus assumed; SMILES CC[C@H](C)[C@H](NC(=O)[C@H](Cc1c[nH]c2ccccc12)NC(=O)[C@H](C)NC(=O)[C@H](CCCNC(=N)N)NC(=O)c1ccc(CN)cc1)C(=O)N[C@@H](CC(N)=O)C(=O)N[C@@H](CC(C)C)C(=O)N[C@H](C(=O)N[C@H](C(=O)N[C@@H](CCCNC(=N)N)C(=O)N[C@@H](CCC(N)=O)C(=O)N[C@@H](CCCNC(=N)N)C(=O)N[C@@H](Cc1ccc(O)cc1)C(N)=O)[C@@H](C)O)[C@@H](C)CC, also called compound No. 51) [4-Aminomethylbenzoyl-[Ala26, Trp27, Ile28,31]-PYY(25-36)] | 5.3 ratio | 9.5 ratio
12 | [4Amb]RRYINLITRQRY-NH2 (N-terminus assumed; SMILES CC[C@H](C)[C@H](NC(=O)[C@H](Cc1ccc(O)cc1)NC(=O)[C@H](CCCNC(=N)N)NC(=O)[C@H](CCCNC(=N)N)NC(=O)c1ccc(CN)cc1)C(=O)N[C@@H](CC(N)=O)C(=O)N[C@@H](CC(C)C)C(=O)N[C@H](C(=O)N[C@H](C(=O)N[C@@H](CCCNC(=N)N)C(=O)N[C@@H](CCC(N)=O)C(=O)N[C@@H](CCCNC(=N)N)C(=O)N[C@@H](Cc1ccc(O)cc1)C(N)=O)[C@@H](C)O)[C@@H](C)CC, also called compound No. 18) [4-Aminomethylbenzoyl-[Arg26, Ile28,31]-PYY(25-36)] | 3 ratio | 4 ratio
13 | [4Amb]RAYINYITRQRY-NH2 (N-terminus assumed; SMILES CC[C@H](C)[C@H](NC(=O)[C@H](Cc1ccc(O)cc1)NC(=O)[C@H](C)NC(=O)[C@H](CCCNC(=N)N)NC(=O)c1ccc(CN)cc1)C(=O)N[C@@H](CC(N)=O)C(=O)N[C@@H](Cc1ccc(O)cc1)C(=O)N[C@H](C(=O)N[C@H](C(=O)N[C@@H](CCCNC(=N)N)C(=O)N[C@@H](CCC(N)=O)C(=O)N[C@@H](CCCNC(=N)N)C(=O)N[C@@H](Cc1ccc(O)cc1)C(N)=O)[C@@H](C)O)[C@@H](C)CC, also called compound No. 57) [4-Aminomethylbenzoyl-[Ala26, Ile28,31, Tyr30]-PYY(25-36)] | 1.9 ratio | 2.8 ratio
14 | [4Amb]RAYLNLITRQRY-NH2 (N-terminus assumed; SMILES CC[C@H](C)[C@H](NC(=O)[C@H](CC(C)C)NC(=O)[C@H](CC(N)=O)NC(=O)[C@H](CC(C)C)NC(=O)[C@H](Cc1ccc(O)cc1)NC(=O)[C@H](C)NC(=O)[C@H](CCCNC(=N)N)NC(=O)c1ccc(CN)cc1)C(=O)N[C@H](C(=O)N[C@@H](CCCNC(=N)N)C(=O)N[C@@H](CCC(N)=O)C(=O)N[C@@H](CCCNC(=N)N)C(=O)N[C@@H](Cc1ccc(O)cc1)C(N)=O)[C@@H](C)O, also called compound No. 20) [4-Aminomethylbenzoyl-[Ala26, Ile31]-PYY(25-36)] | 2 ratio | 2.8 ratio
